Laboratory results published in US20100016547A1, “Glycosilated Peptide and Medicine Comprising It as an Effective Ingredient” (priority 2005, published 2010).

Columns and labels:
[1] = biological target: GLP-1 receptor
[2] = biological target: GLP-1 receptor; remark: listed apart in the source

EX (peptide) was tested. Which IC50 [1] did it give?
Its IC50 is 0.1 nM.

What about the EC50 (cAMP assay) [2] of the same substance?
The EC50 (cAMP assay) was 0.55 nM.
